According to US8497072 (AbbVie / Abbott, dated 2013):
Changes are numbered by the printed parent chain.

B1: monoclonal antibody 8F5 (antibody, V domains shown)
VH: EVQLVESGGGLVQPGGSLKLSCAASGFTFSSYGMSWVRQTPDKRLELVASINSNGGSTYYPDSVKGRFTISRDNAKNTLYLQMSSLKSEDTAMYYCASGDYWGQGSTLTVSS
VL: DVVMTQTPLSLPVSLGDQASISCRSSQSLVYSNGDTYLHWYLQKPGQSPKLLIYKVSNRFSGVPDRFSGSGSGTDFTLKISRVEAEDLGVYFCSQSTHVPWTFGGGTKLEIKR
notes: Murine monoclonal antibody from a hybridoma (Balb/c mice immunized with Aβ(1-42) globulomer); Biotinylated with Sulfo-NHS-Biotin for the sandwich ELISA; coupled to Sepharose or Dynabeads for the immunoprecipitations; also called mMAb 8F5; anti-Aβ mouse Mab 8F5
B2: monoclonal antibody 8C5 (antibody, V domains shown)
VH: B1 VH with A23T, N52K, S53N, V64L, S106T
VL: B1 VL with Y31H, Y37F, V90I, T97I
notes: Murine monoclonal antibody from a hybridoma; Biotinylated for the sandwich ELISA; also called mMab 8C5; 5C5

Key:
[1] = target: T1, Aβ(1-42) monomer, HFIP pretreated (human); assay: sandwich ELISA, 6G1 capture, antigen titrated, biotinylated 8F5 detection
T1 construct: also called Aβ(1-42) monomer in HFIP; Aβ(1-42) monomer HFIP treated
T1 sequence (peptide, as listed by the source): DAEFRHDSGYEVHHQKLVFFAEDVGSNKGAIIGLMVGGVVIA
Method: (§1) Two types of experiments were performed. […] This experiment is described in Example 2.1 below.
(§2) Add 10 μl Aβ(1-42) monomer HFIP-pretreated standard stock solution to 44041 PBST+0.5% BSA 10 μg/ml Add 50 μl 10 μg/ml Aβ(1-42) monomer HFIP pretreated standard solution to 495041 PBST+0.5% BSA=100 ng/ml c) Aβ(1-42) monomer in NH4OH Add 5 μl Aβ(1-42) monomer in NH4OH standard stock solution to 995 μl PBST+0.5% BSA=[…] Add 50 μl 10 μg/ml Aβ(1-42) monomer in NH4OH standard solution to 495041 PEST+[…]=100 ng/ml d) Aβ(1-40) monomer HFIP-pretreated Add 1 μl Aβ(1-40) monomer HFIP pretreated standard stock solution to 49 μl PBST+0.5% BSA=430 μg/ml Add 10 μl 430 μg/ml Aβ(1-40) monomer HFIP pretreated standard solution to […] PEST+0.5% BSA=10 μg/ml Add 50 μl 10 μg/ml Aβ(1-40) monomer HFIP pretreated standard solution to 4950 μl PBST+0.5% BSA 100 ng/ml Standard Curves:
(§3) 1. Apply 100 μl anti-Aβ mMAb 6G1 solution per well and incubate overnight at 4° C. 2. Discard the antibody solution and wash the wells with 250 μl PBST-Buffer three times. 3. Add 260 μl block solution per well and incubate 2 h at room temperature. 4. Discard the block solution and wash the wells with 250 μl PBST-Buffer three times. 5. After preparation of standards, apply 100 μl per well of standards to the plate. Incubate 2 h at room temperature and overnight at 4° C. 6. Discard the standard solution and wash the wells with 250 μl PBST-Buffer three times. 7. […] 8. Discard the antibody solution and wash the wells with 250 μl PBST-Buffer three times. 9. Add 200 μl label solution per well and incubate 1 h at room temperature. 10. Discard the label solution and wash the wells with 250 μl PBST-Buffer three times. 11. Add 100 μl of TMB solution to each well and incubate at room temperature (5-15 min). 12.

Aβ(1-42) globulomer [2] = target: T2, Aβ(1-42) globulomer (human, UniProt P05067 672-713); assay: as above
T2 construct: The definitions give n=12-14 subunits for late assembly forms; no subunit number is stated for the preparation used; also called A-beta (1-42) globulomer; Aβ(1-42) globular oligomer
Method: as §1, §2, §3

[3] = target: Aβ(1-42) monomer in NH4OH (human); assay: as above
Method: as §1, §2, §3

Aβ(1-40) monomer [4] = target: T3, Aβ(1-40) monomer (human); assay: as above
T3 construct: also called Aβ40; Aβ(1-40) monomer HFIP pretreated
T3 sequence (peptide, as listed by the source): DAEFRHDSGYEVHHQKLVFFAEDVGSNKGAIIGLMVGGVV
Method: as §1, §2, §3

Aβ(1-42) globulomer [5] = target: T2, Aβ(1-42) globulomer; assay: sandwich ELISA, reference Aβ(1-42) monomer
[6] = target: T1, Aβ(1-42) monomer, HFIP pretreated; assay: sandwich ELISA, EC50 of this antigen divided by EC50 of Aβ(1-42) globulomer
[7] = target: Aβ(1-42) monomer in NH4OH (human); assay: as above
Aβ(1-40) monomer [8] = target: T3, Aβ(1-40) monomer; assay: as above
Aβ(1-42) globulomer [9] = target: T2, Aβ(1-42) globulomer; assay: dot blot, reference Aβ(1-40) monomer
Method: (§4) In a second example, described in Example 2.2 below, the oligomer selectivity versus Aβ(1-42) monomer and Aβ(1-40) monomer was examined by dot blot immunoassay.
(§5) Serial dilutions of Aβ(1-42) globulomer, Aβ1-42 monomer and Aβ1-40 monomer were made in the range from 100 pmol/μl-0.01 pmol/μl in PBS. Of each sample, 1 μl was dotted onto a nitrocellulose membrane. […] The detection signal was analyzed in its intensity (reflective density=RD) via a densitometer (GS 800, Biorad, Hercules, Calif., USA) at an antigen concentration of 10 pmol.

Aβ(1-42) globulomer [10] = target: T2, Aβ(1-42) globulomer; assay: dot blot, reference Aβ(1-42) monomer
Method: as §4, §5

[11] = target: T4, endogenous Aβ(1-42) in human CSF (human); assay: IP from AD patient CSF, urea-PAGE Western blot, share of Aβ42 in recovered Aβ40+42
T4 construct: Endogenous peptide in cerebrospinal fluid of MCI and AD patients; it was quantified after elution by ELISA or urea-PAGE Western blot; also called Aβ42; Amyloid β(1-42)
Method: Immunoprecipitation of Abeta Species from Human AD-CSF: 250 μL aliquot of the prepared CSF sample were added to 25 μL anti-Aβ-Dynabeads suspension. Immunoprecipitation occurred under stirring at 6° C. for 16 hours. Subsequent washing of the beads was performed 3 times 5 min. with 1 mL PBS/0.1% (w/v) BSA and finally once 3 min. with 1 mL 10 mM Tris/HCL pH 7.5 buffer. During the washing procedure, the supernatant was carefully removed while the dynabeads were immobilized at the side of the reaction vial with a magnetic separator stand (MSS). The residual supernatant was thoroughly removed after the final washing step. […] After cooling to room temperature, the dynabeads were immobilized at the side of the reaction vial with a magnetic separator stand (MSS), and the supernatant was transferred to another Eppendorff tube (IP eluate).
15 μL IP eluate aliquots of the immunoprecipitated samples were loaded onto the 8 M Urea PAGE. Electrophoresis was performed at 100 V (15 min) and continued at 60 V. The electrophoresis was stopped when the running front of the blue sample loading dye was still 0.5 cm away from the end of the gel.

Aβ(1-42) globulomer [12] = target: T2, Aβ(1-42) globulomer; assay: dot blot, 10 pmol antigen on nitrocellulose, 0.2 µg/ml antibody, densitometry
Method: as §4, §5

[13] = target: T5, Aβ1-42 monomer (dot blot) (human); assay: as above
T5 construct: also called Aβ42 monomer
Method: as §4, §5

Aβ(1-40) monomer [14] = target: T3, Aβ(1-40) monomer; assay: as above
Method: as §4, §5

Aβ(1-42) globulomer [15] = target: T2, Aβ(1-42) globulomer; assay: dot blot, 10 pmol antigen on nitrocellulose, densitometry
Method: as §4, §5

[16] = target: T5, Aβ1-42 monomer (dot blot); assay: as above
Method: as §4, §5

Aβ(1-40) monomer [17] = target: T3, Aβ(1-40) monomer; assay: as above
Method: as §4, §5

Binder | Log EC50 [1] | Log EC50 (Aβ(1-42) globulomer [2]) | Log EC50 [3] | Log EC50 (Aβ(1-40) monomer [4]) | selectivity for Aβ(1-42) globulomer versus Aβ(1-42) monomer (Aβ(1-42) globulomer [5]) [fold] | selectivity factor (EC50 ratio against Aβ(1-42) globulomer) [6] [fold] | selectivity factor (EC50 ratio against Aβ(1-42) globulomer) [7] [fold] | selectivity factor (EC50 ratio against Aβ(1-42) globulomer) (Aβ(1-40) monomer [8]) [fold] | Ratio RD Aβ(1-42) globulomer/RD Aβ(1-40) monomer (Aβ(1-42) globulomer [9]) | Ratio RD Aβ(1-42) globulomer/RD Aβ(1-42) monomer (Aβ(1-42) globulomer [10]) | Ratio Aβ42/Aβ40+42 × 100% [11] [%] | Reflective Density (RD) [10 pmol] (Aβ(1-42) globulomer [12]) [RD] | Reflective Density (RD) [10 pmol] [13] [RD] | Reflective Density (RD) [10 pmol] (Aβ(1-40) monomer [14]) [RD] | Reflective Density (RD) [10 pmol] (Aβ(1-42) globulomer [15]) [RD] | Reflective Density (RD) [10 pmol] [16] [RD] | Reflective Density (RD) [10 pmol] (Aβ(1-40) monomer [17]) [RD]
B1 | 2.75 | 1.96 | 3 | 2.83 | ~10 | 6.1 | 11.1 | 7.4 | 16.9 | 1.4 | 8.1 | 1.6 | 1.1 | 0.1 | – | – | –
B2 | – | – | – | – | – | 4.1 | > 100 | > 100 | 4.1 | 5.1 | 14.9 | – | – | – | 1.3 | 0.2 | 0.3
